Results taken from patent US20230075095A1 (University of Washington, published 2023).

Biological target: the molecule itself
Test: negative-stain TEM, homomeric self-assembly
Method: FIG. 2(a-b). Transmission electron micrographs of degreased I3-01 constructs. […] Images taken at 22,000× magnification.
Samples were prepared for negative stain EM by diluting to 0.05-0.075 mg/mL using a Tris-based buffer, and 6.0 μL was incubated on a glow-discharged, copper, carbon-coated grid for 1 min before quickly immersing the grid in a 60 μL drop of water. The water was blotted off within seconds by Whatman™ No. 1 filter paper, and the grid was immediately dipped into a 6.0 μL drop of stain (2% w/v uranyl formate). The stain was immediately blotted away and within seconds the grid was dipped into another 6.0 μL drop of stain, which was left on the grid for 30 seconds. At the end of this time, the stain was blotted dry and allowed to air dry for 5 minutes prior to imaging. Images were recorded on a FEI Morgagni 268 transmission electron microscope equipped with a Gatan US4000 CCD camera, using Leginon™ software for data collection at a nominal magnification of 22,000× at a defocus range comprised between −1 um and −4 um.

Row | Protein | binding result
1 | I3-01 H35D (designed binder, One-component (homomeric) icosahedral nanoparticle secreted from HEK293F cells; also called H35D variant; degreased I3-01 construct) YKDEKMEELFKKHKIVAVLRANSVEEAKKKALAVFLGGVDLIEITFTVPDADTVIKELSFLKEMGAIIGAGTVTSVEQCRKAVESGAEFIVSPHLDEEISQFCKEKGVFYMPGVMTPTELVKAMKLGHTILKLFPGEVVGPQFVKAMKGPFPNVKFVPTGGVNLDNVCEWFKAGVLAVGVGSALVKGTPVEVAEKAKAFVEKIRGCTEQKLISEEDLHHHHHH | binds
2 | I3-01 'secretion mutations' (H35D/L171Q/S177E/V180N) (designed binder, One-component (homomeric) icosahedral nanoparticle secreted from HEK293F cells; also called H35D/L171Q/S177E/V180N quadruple mutant) YKDEKMEELFKKHKIVAVLRANSVEEAKKKALAVFLGGVDLIEITFTVPDADTVIKELSFLKEMGAIIGAGTVTSVEQCRKAVESGAEFIVSPHLDEEISQFCKEKGVFYMPGVMTPTELVKAMKLGHTILKLFPGEVVGPQFVKAMKGPFPNVKFVPTGGVNLDNVCEWFKAGVQAVGVGEALNKGTPVEVAEKAKAFVEKIRGCTEQKLISEEDLHHHHHH | binds
